Experimental data published in the supplement of paper PMC6757056.
± gives the standard deviation of the averaged measurements.

B1: library; a variant is named by its letters at N, in order (parent)
chain: GCUGUCACCGGUGCUUGGUACGUUAUAUUCAGCCGGUCUGAUGAGUCUNNNNNNAGACGAAACAGC

Assays:
(6R,S)-folinic acid [1] = variants of: B1; assay: normalized RNA/DNA level without ligand (relative to sTRSVctl = 100) (log10 (% of sTRSVctl)); HEK293T overexpressing SLC46A1; higher = less ribozyme self-cleavage, higher mRNA level; details: without (6R,S)-folinic acid; ligand present: no
Method in brief: (§1)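 Ribozyme switch library plasmids with mCherry reporters (eGFP in certain ligand experiments) went into HEK293T cells at 4 µg per 6-well well. Where ligand was used, it was applied 1 h before transfection, and total RNA was extracted with EDTA 72 h later for reverse transcription, amplification, barcoding and sequencing. RNA level is the RNA-to-DNA read ratio normalized to a spiked-in non-cleaving sequence or to the leading sequences, then scaled and log-transformed. Scaling was ×100 with log10, the leading set comprised 25 sequences, and the cutoff was ≥100 DNA reads.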

(6R,S)-folinic acid [2] = variants of: B1; assay: normalized RNA/DNA level with ligand (relative to sTRSVctl = 100) (log10 (% of sTRSVctl)); HEK293T overexpressing SLC46A1; ligand concentration (+) RNA-Seq: 6 mM; higher = less ribozyme self-cleavage, higher mRNA level; details: with (6R,S)-folinic acid; ligand present: yes
Method in brief: as §1

AUCGAA
normalized RNA/DNA level without ligand (log10) ((6R,S)-folinic acid [1]): 1.974 ± 0.0042 | normalized RNA/DNA level with ligand (log10) ((6R,S)-folinic acid [2]): 2 ± 0.02

AUCGAU
normalized RNA/DNA level without ligand (log10) ((6R,S)-folinic acid [1]): 1.98 ± 0.025 | normalized RNA/DNA level with ligand (log10) ((6R,S)-folinic acid [2]): 2.02 ± 0.031

AUCUGC
normalized RNA/DNA level without ligand (log10) ((6R,S)-folinic acid [1]): 2.06 ± 0.028 | normalized RNA/DNA level with ligand (log10) ((6R,S)-folinic acid [2]): 2.05 ± 0.052

AUCUGA
normalized RNA/DNA level without ligand (log10) ((6R,S)-folinic acid [1]): 2.021 ± 0.016 | normalized RNA/DNA level with ligand (log10) ((6R,S)-folinic acid [2]): 2.02 ± 0.058

AUCUGU
normalized RNA/DNA level without ligand (log10) ((6R,S)-folinic acid [1]): 2.004 ± 0.0032 | normalized RNA/DNA level with ligand (log10) ((6R,S)-folinic acid [2]): 2.06 ± 0.056

CUCGAA
normalized RNA/DNA level without ligand (log10) ((6R,S)-folinic acid [1]): 1.994 ± 0.009 | normalized RNA/DNA level with ligand (log10) ((6R,S)-folinic acid [2]): 1.988 ± 0.018

CUCGAU
normalized RNA/DNA level without ligand (log10) ((6R,S)-folinic acid [1]): 1.99 ± 0.0044 | normalized RNA/DNA level with ligand (log10) ((6R,S)-folinic acid [2]): 1.991 ± 0.0061

CUCGAC
normalized RNA/DNA level without ligand (log10) ((6R,S)-folinic acid [1]): 2.017 ± 0.0083 | normalized RNA/DNA level with ligand (log10) ((6R,S)-folinic acid [2]): 2.01 ± 0.02

GUCGCU
normalized RNA/DNA level without ligand (log10) ((6R,S)-folinic acid [1]): 2.048 ± 0.0053 | normalized RNA/DNA level with ligand (log10) ((6R,S)-folinic acid [2]): 2.002 ± 0.02

GUCGCG
normalized RNA/DNA level without ligand (log10) ((6R,S)-folinic acid [1]): 1.96 ± 0.026 | normalized RNA/DNA level with ligand (log10) ((6R,S)-folinic acid [2]): 1.996 ± 0.0077

AUAUUU
normalized RNA/DNA level without ligand (log10) ((6R,S)-folinic acid [1]): 2.008 ± 0.0083 | normalized RNA/DNA level with ligand (log10) ((6R,S)-folinic acid [2]): 2.02 ± 0.027

AUAUUA
normalized RNA/DNA level without ligand (log10) ((6R,S)-folinic acid [1]): 1.963 ± 0.012 | normalized RNA/DNA level with ligand (log10) ((6R,S)-folinic acid [2]): 1.996 ± 0.019

UUCUAC
normalized RNA/DNA level without ligand (log10) ((6R,S)-folinic acid [1]): 2.03 ± 0.029 | normalized RNA/DNA level with ligand (log10) ((6R,S)-folinic acid [2]): 1.98 ± 0.061

UUCUAU
normalized RNA/DNA level without ligand (log10) ((6R,S)-folinic acid [1]): 1.994 ± 0.0097 | normalized RNA/DNA level with ligand (log10) ((6R,S)-folinic acid [2]): 2.05 ± 0.04

GUCAUA
normalized RNA/DNA level without ligand (log10) ((6R,S)-folinic acid [1]): 1.994 ± 0.0035 | normalized RNA/DNA level with ligand (log10) ((6R,S)-folinic acid [2]): 1.99 ± 0.055

GUCAUU
normalized RNA/DNA level without ligand (log10) ((6R,S)-folinic acid [1]): 2.068 ± 0.0023 | normalized RNA/DNA level with ligand (log10) ((6R,S)-folinic acid [2]): 2.007 ± 0.0048

GUCAUC
normalized RNA/DNA level without ligand (log10) ((6R,S)-folinic acid [1]): 2.0573 ± 0.0006 | normalized RNA/DNA level with ligand (log10) ((6R,S)-folinic acid [2]): 2.01 ± 0.0035

UUCUUA
normalized RNA/DNA level without ligand (log10) ((6R,S)-folinic acid [1]): 2.032 ± 0.02 | normalized RNA/DNA level with ligand (log10) ((6R,S)-folinic acid [2]): 2.02 ± 0.081

CUCUAC
normalized RNA/DNA level without ligand (log10) ((6R,S)-folinic acid [1]): 2.0423 ± 0.0006 | normalized RNA/DNA level with ligand (log10) ((6R,S)-folinic acid [2]): 2.04 ± 0.023

CUCUAA
normalized RNA/DNA level without ligand (log10) ((6R,S)-folinic acid [1]): 1.997 ± 0.017 | normalized RNA/DNA level with ligand (log10) ((6R,S)-folinic acid [2]): 2.01 ± 0.044

CUCUAU
normalized RNA/DNA level without ligand (log10) ((6R,S)-folinic acid [1]): 2.012 ± 0.0028 | normalized RNA/DNA level with ligand (log10) ((6R,S)-folinic acid [2]): 2.03 ± 0.049

CUCUAG
normalized RNA/DNA level without ligand (log10) ((6R,S)-folinic acid [1]): 2.001 ± 0.019 | normalized RNA/DNA level with ligand (log10) ((6R,S)-folinic acid [2]): 2.02 ± 0.083

AUCCAA
normalized RNA/DNA level without ligand (log10) ((6R,S)-folinic acid [1]): 1.958 ± 0.0049 | normalized RNA/DNA level with ligand (log10) ((6R,S)-folinic acid [2]): 1.98 ± 0.02

AUCCAU
normalized RNA/DNA level without ligand (log10) ((6R,S)-folinic acid [1]): 1.991 ± 0.0092 | normalized RNA/DNA level with ligand (log10) ((6R,S)-folinic acid [2]): 2.01 ± 0.042

AUCCAC
normalized RNA/DNA level without ligand (log10) ((6R,S)-folinic acid [1]): 2.037 ± 0.013 | normalized RNA/DNA level with ligand (log10) ((6R,S)-folinic acid [2]): 2.02 ± 0.037

AUCCAG
normalized RNA/DNA level without ligand (log10) ((6R,S)-folinic acid [1]): 1.981 ± 0.0027 | normalized RNA/DNA level with ligand (log10) ((6R,S)-folinic acid [2]): 2 ± 0.031

GUCAAC
normalized RNA/DNA level without ligand (log10) ((6R,S)-folinic acid [1]): 2.0058 ± 0.0019 | normalized RNA/DNA level with ligand (log10) ((6R,S)-folinic acid [2]): 2.03 ± 0.03

GUCAAU
normalized RNA/DNA level without ligand (log10) ((6R,S)-folinic acid [1]): 1.975 ± 0.018 | normalized RNA/DNA level with ligand (log10) ((6R,S)-folinic acid [2]): 2.02 ± 0.045

GUCAAA
normalized RNA/DNA level without ligand (log10) ((6R,S)-folinic acid [1]): 1.994 ± 0.009 | normalized RNA/DNA level with ligand (log10) ((6R,S)-folinic acid [2]): 1.99 ± 0.037

AUCGCA
normalized RNA/DNA level without ligand (log10) ((6R,S)-folinic acid [1]): 2.01 ± 0.024 | normalized RNA/DNA level with ligand (log10) ((6R,S)-folinic acid [2]): 2 ± 0.032

AUCGCG
normalized RNA/DNA level without ligand (log10) ((6R,S)-folinic acid [1]): 1.926 ± 0.013 | normalized RNA/DNA level with ligand (log10) ((6R,S)-folinic acid [2]): 2.02 ± 0.019

AUCGCC
normalized RNA/DNA level without ligand (log10) ((6R,S)-folinic acid [1]): 2.041 ± 0.014 | normalized RNA/DNA level with ligand (log10) ((6R,S)-folinic acid [2]): 2 ± 0.053

UUCGCG
normalized RNA/DNA level without ligand (log10) ((6R,S)-folinic acid [1]): 1.91 ± 0.029 | normalized RNA/DNA level with ligand (log10) ((6R,S)-folinic acid [2]): 1.968 ± 0.0034

UUCGCA
normalized RNA/DNA level without ligand (log10) ((6R,S)-folinic acid [1]): 1.988 ± 0.016 | normalized RNA/DNA level with ligand (log10) ((6R,S)-folinic acid [2]): 2 ± 0.048

UUCGCU
normalized RNA/DNA level without ligand (log10) ((6R,S)-folinic acid [1]): 1.981 ± 0.014 | normalized RNA/DNA level with ligand (log10) ((6R,S)-folinic acid [2]): 1.99 ± 0.026

UUCGCC
normalized RNA/DNA level without ligand (log10) ((6R,S)-folinic acid [1]): 2.017 ± 0.0095 | normalized RNA/DNA level with ligand (log10) ((6R,S)-folinic acid [2]): 2.01 ± 0.025

CUCGCG
normalized RNA/DNA level without ligand (log10) ((6R,S)-folinic acid [1]): 2.038 ± 0.016 | normalized RNA/DNA level with ligand (log10) ((6R,S)-folinic acid [2]): 2.03 ± 0.038

CUCGCC
normalized RNA/DNA level without ligand (log10) ((6R,S)-folinic acid [1]): 2.1 ± 0.027 | normalized RNA/DNA level with ligand (log10) ((6R,S)-folinic acid [2]): 2.07 ± 0.054

GUCUUA
normalized RNA/DNA level without ligand (log10) ((6R,S)-folinic acid [1]): 2.03 ± 0.025 | normalized RNA/DNA level with ligand (log10) ((6R,S)-folinic acid [2]): 2.034 ± 0.013

CUCCGA
normalized RNA/DNA level without ligand (log10) ((6R,S)-folinic acid [1]): 2.06 ± 0.024 | normalized RNA/DNA level with ligand (log10) ((6R,S)-folinic acid [2]): 2.01 ± 0.071

CUCCGU
normalized RNA/DNA level without ligand (log10) ((6R,S)-folinic acid [1]): 2.042 ± 0.018 | normalized RNA/DNA level with ligand (log10) ((6R,S)-folinic acid [2]): 2.06 ± 0.044

GUCUGA
normalized RNA/DNA level without ligand (log10) ((6R,S)-folinic acid [1]): 2.05 ± 0.021 | normalized RNA/DNA level with ligand (log10) ((6R,S)-folinic acid [2]): 2.05 ± 0.038

GUCUGU
normalized RNA/DNA level without ligand (log10) ((6R,S)-folinic acid [1]): 2.016 ± 0.0056 | normalized RNA/DNA level with ligand (log10) ((6R,S)-folinic acid [2]): 2.06 ± 0.027

GUCCUG
normalized RNA/DNA level without ligand (log10) ((6R,S)-folinic acid [1]): 2.02 ± 0.034 | normalized RNA/DNA level with ligand (log10) ((6R,S)-folinic acid [2]): 2.01 ± 0.021

GUCCUU
normalized RNA/DNA level without ligand (log10) ((6R,S)-folinic acid [1]): 2.005 ± 0.01 | normalized RNA/DNA level with ligand (log10) ((6R,S)-folinic acid [2]): 2.008 ± 0.019

GUCCUC
normalized RNA/DNA level without ligand (log10) ((6R,S)-folinic acid [1]): 2.024 ± 0.02 | normalized RNA/DNA level with ligand (log10) ((6R,S)-folinic acid [2]): 2.05 ± 0.048

GUCCUA
normalized RNA/DNA level without ligand (log10) ((6R,S)-folinic acid [1]): 1.994 ± 0.015 | normalized RNA/DNA level with ligand (log10) ((6R,S)-folinic acid [2]): 2.02 ± 0.043

UUAUGG
normalized RNA/DNA level without ligand (log10) ((6R,S)-folinic acid [1]): 1.798 ± 0.008 | normalized RNA/DNA level with ligand (log10) ((6R,S)-folinic acid [2]): 1.97 ± 0.0093

UUAUGC
normalized RNA/DNA level without ligand (log10) ((6R,S)-folinic acid [1]): 1.989 ± 0.0091 | normalized RNA/DNA level with ligand (log10) ((6R,S)-folinic acid [2]): 2.02 ± 0.039

AUCGGG
normalized RNA/DNA level without ligand (log10) ((6R,S)-folinic acid [1]): 1.923 ± 0.017 | normalized RNA/DNA level with ligand (log10) ((6R,S)-folinic acid [2]): 2.05 ± 0.047

AUCGGC
normalized RNA/DNA level without ligand (log10) ((6R,S)-folinic acid [1]): 2.054 ± 0.013 | normalized RNA/DNA level with ligand (log10) ((6R,S)-folinic acid [2]): 2.02 ± 0.043

AUCGGU
normalized RNA/DNA level without ligand (log10) ((6R,S)-folinic acid [1]): 1.94 ± 0.02 | normalized RNA/DNA level with ligand (log10) ((6R,S)-folinic acid [2]): 1.96 ± 0.032

GUCCCG
normalized RNA/DNA level without ligand (log10) ((6R,S)-folinic acid [1]): 2.004 ± 0.019 | normalized RNA/DNA level with ligand (log10) ((6R,S)-folinic acid [2]): 1.98 ± 0.024

GUCCCU
normalized RNA/DNA level without ligand (log10) ((6R,S)-folinic acid [1]): 2.05 ± 0.021 | normalized RNA/DNA level with ligand (log10) ((6R,S)-folinic acid [2]): 2.03 ± 0.03

GUCCCA
normalized RNA/DNA level without ligand (log10) ((6R,S)-folinic acid [1]): 2.039 ± 0.0032 | normalized RNA/DNA level with ligand (log10) ((6R,S)-folinic acid [2]): 2.016 ± 0.0029

UUCCGU
normalized RNA/DNA level without ligand (log10) ((6R,S)-folinic acid [1]): 2.0373 ± 0.0012 | normalized RNA/DNA level with ligand (log10) ((6R,S)-folinic acid [2]): 2.05 ± 0.048

UUCCGG
normalized RNA/DNA level without ligand (log10) ((6R,S)-folinic acid [1]): 2.025 ± 0.006 | normalized RNA/DNA level with ligand (log10) ((6R,S)-folinic acid [2]): 2.03 ± 0.031

UUCCGC
normalized RNA/DNA level without ligand (log10) ((6R,S)-folinic acid [1]): 2.03 ± 0.026 | normalized RNA/DNA level with ligand (log10) ((6R,S)-folinic acid [2]): 2.01 ± 0.039
